# Where two headings read alike, the source gives them in different places. Where a SMILES comes first, the peptide text is derived from it. The star is where a group is joined. X1 = O=C(O)c1cc(N*)ccc1O
# Assays:
# [1] = system: LO-2 cells; assay: Expression of Cat-B and CHOP in hepatocytes after drug exposure; type: cell-based, human; settings: LO-2 cells after treatment with APAP
# Source text: We initially investigated the changes within human hepatocytes in response to drug exposure.
# [2] = system: APAP-induced ALF model; assay: Therapeutic efficacy in APAP-induced ALF mouse model; type: in vivo, C57BL/6 mice; settings: ALF mice
# Procedure: The in vivo therapeutic efficacy of SPNs was evaluated in an APAP-induced ALF model.
# Following 24 h of treatment, liver tissue was collected from the mice and then stained with H&E, fluorescent dye-conjugated antibodies (TNF-α, 506303, Biolegend; IL-6, 504503, Biolegend; and IL-10, 505005, Biolegend) or TUNEL (G3250, Promega). A portion of the liver tissues was dispersed in lysis buffer and subsequently centrifuged to remove debris, followed by western blot for MAPK and assessment of cytokines, such as TNF-α, IL-6, IL-1β and IL-10, via ELISA assays. Hematological parameters were analyzed by KNOTUS (Incheon, Republic of Korea).
# [3] = biological target: T1, matrix metalloproteinase 9 (MMP-9) (Homo sapiens, UniProt P14780); assay: Enzyme-specific cleavage by HPLC, MMP-9; type: in vitro ADME; settings: 24 h, pH 5.5 MES buffer, 37°C
# T1 construct: purchased R&D systems 911-MP
# T1 sequence (P14780 94-707): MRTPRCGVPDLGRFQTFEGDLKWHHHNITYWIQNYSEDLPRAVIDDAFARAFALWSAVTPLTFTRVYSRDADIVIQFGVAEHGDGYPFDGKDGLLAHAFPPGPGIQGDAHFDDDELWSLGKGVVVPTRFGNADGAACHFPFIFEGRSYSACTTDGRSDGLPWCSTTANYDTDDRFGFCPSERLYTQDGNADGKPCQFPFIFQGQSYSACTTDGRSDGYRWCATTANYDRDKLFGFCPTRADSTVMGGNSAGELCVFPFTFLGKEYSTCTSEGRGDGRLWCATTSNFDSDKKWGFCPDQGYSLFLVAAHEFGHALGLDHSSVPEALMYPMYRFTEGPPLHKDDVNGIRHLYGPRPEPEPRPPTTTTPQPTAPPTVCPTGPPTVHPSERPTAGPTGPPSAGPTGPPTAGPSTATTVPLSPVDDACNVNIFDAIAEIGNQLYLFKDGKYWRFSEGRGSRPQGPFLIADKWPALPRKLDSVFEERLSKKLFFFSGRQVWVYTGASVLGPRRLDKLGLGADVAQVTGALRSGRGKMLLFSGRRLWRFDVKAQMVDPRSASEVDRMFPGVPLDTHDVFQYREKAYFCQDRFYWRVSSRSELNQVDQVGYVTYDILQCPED
# Procedure: (§1) After a 30 min reaction, the final product was purified and analyzed using an LC/MS system (Agilent 1200 Series HPLC system). The hydrodynamic size and zeta potential were analyzed by using a Zetasizer (Nano ZS, Malvern Instruments, Worcestershire, UK). The morphology of SPNs in distilled water was observed using transmission electron microscopy (CM-200, Philips, USA). The target enzyme-specific cleavage was evaluated through HPLC analysis after incubation with Cat-B (953CY, R&D systems, MN, USA), Cat-E (1294-AS, R&D systems), Cat-D (1014-AS, R&D systems), Cat-L (952-CY, R&D systems), MMP-9 (911-MP, R&D systems) or Cas-3 (707-C3/CF, R&D systems) in pH 5.5 2-(N-morpholino)ethane sulfonic acid (MES) buffer at 37°C.
# [4] = system: MIHA cells; assay: Cytotoxicity assay (CCK-8), MIHA; type: cell-based, human; settings: 0 to 20 mM, 24 h, compared with mesalamine
# [5] = biological target: T2, Cat-B (Homo sapiens, UniProt P07858); assay: Enzyme-specific cleavage by HPLC, Cat-B; type: in vitro ADME; settings: 1 h, pH 5.5 MES buffer, 37°C, HPLC and LC/MS
# T2 construct: purchased R&D systems 953CY
# Procedure: as §1
# [6] = biological target: T3, Cat-D (Homo sapiens, UniProt P07339); assay: Enzyme-specific cleavage by HPLC, Cat-D; type: in vitro ADME; settings: 24 h, pH 5.5 MES buffer, 37°C
# T3 construct: purchased R&D systems 1014-AS
# T3 sequence (P07339 65-412): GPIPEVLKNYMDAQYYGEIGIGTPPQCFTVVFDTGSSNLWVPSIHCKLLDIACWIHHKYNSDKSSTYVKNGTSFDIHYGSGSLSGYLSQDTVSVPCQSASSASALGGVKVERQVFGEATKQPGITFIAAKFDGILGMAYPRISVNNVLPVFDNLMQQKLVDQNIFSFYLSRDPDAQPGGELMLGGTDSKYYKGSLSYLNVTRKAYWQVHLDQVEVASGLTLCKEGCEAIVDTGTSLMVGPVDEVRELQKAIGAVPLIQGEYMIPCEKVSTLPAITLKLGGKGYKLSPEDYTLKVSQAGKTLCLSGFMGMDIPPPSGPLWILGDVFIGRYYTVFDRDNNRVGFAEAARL
# Procedure: as §1
# [7] = system: HepG2 cells; assay: Cytotoxicity assay (CCK-8), HepG2; type: cell-based; settings: 0 to 20 mM, 24 h, compared with mesalamine
# [8] = biological target: T4, Cat-L (Homo sapiens, UniProt P07711); assay: Enzyme-specific cleavage by HPLC, Cat-L; type: in vitro ADME; settings: 24 h, pH 5.5 MES buffer, 37°C
# T4 construct: purchased R&D systems 952-CY
# T4 sequence (P07711 114-333): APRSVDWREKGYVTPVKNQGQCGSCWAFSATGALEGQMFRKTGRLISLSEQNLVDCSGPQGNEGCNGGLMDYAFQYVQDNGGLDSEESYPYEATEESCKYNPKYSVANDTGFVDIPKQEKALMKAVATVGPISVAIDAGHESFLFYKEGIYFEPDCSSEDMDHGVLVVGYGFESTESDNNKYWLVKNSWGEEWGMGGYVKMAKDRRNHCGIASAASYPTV
# Procedure: as §1
# [9] = system: normal C57BL/6 mice; settings: mouse, in vivo
# Procedure: The body weight was measured every two days. Seven days after treatment, the hematological parameters were assessed, including AST, ALT, BUN, creatinine, LDH, CK, red blood cell (RBC), hemoglobin (HGB), hematocrit (HCT), platelet (PLT), white blood cell (WBC), neutrophil (NEU) and lymphocyte (LYM). Major organs were collected from the mice and then observed using optical microscopy after H&E staining (BX 51, Olympus, USA). The levels of TNF-α, IL-1β and IL-6 in homogenized kidney tissues were quantified via ELISA assays.
# [10] = system: healthy LO-2 cells
# Procedure: (§2) The cells were then washed with DPBS and dispersed in lysis buffer, followed by centrifugation at 12,000 rpm for 30 min to remove cell debris. Subsequently, the proteins were quantified using a BCA assay kit (23221, Thermo Fisher Scientific), boiled after mixing with sodium dodecyl sulfate loading buffer (NaraBio, Gyeonggi-do, Republic of Korea) for 5 min, and separated by 10% SDS polyacrylamide gel electrophoresis. […] HMGB1 and HSP70 were analyzed in the supernatants after incubating LO-2 cells using the same protocol described above. Finally, the membranes were incubated with goat anti-rabbit immunoglobulin-HRP antibody for 2 h.
# [11] = biological target: T5, Cat-E (Homo sapiens, UniProt P14091); assay: Enzyme-specific cleavage by HPLC, Cat-E; type: in vitro ADME; settings: 24 h, pH 5.5 MES buffer, 37°C
# T5 construct: purchased R&D systems 1294-AS
# T5 sequence (P14091 54-396): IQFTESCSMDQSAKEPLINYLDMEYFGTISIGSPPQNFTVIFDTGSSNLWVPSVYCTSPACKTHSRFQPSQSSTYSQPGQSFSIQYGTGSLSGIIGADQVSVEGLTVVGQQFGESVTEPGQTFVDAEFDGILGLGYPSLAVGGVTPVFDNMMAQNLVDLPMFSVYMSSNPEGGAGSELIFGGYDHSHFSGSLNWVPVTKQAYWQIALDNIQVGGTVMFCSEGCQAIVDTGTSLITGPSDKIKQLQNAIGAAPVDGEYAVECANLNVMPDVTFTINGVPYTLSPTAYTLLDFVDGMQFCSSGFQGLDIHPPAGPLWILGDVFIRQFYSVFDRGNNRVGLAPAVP
# Procedure: as §1
# [12] = biological target: T6, Caspase 3 (Cas-3) (Homo sapiens, UniProt P42574); assay: Enzyme-specific cleavage by HPLC, Caspase 3; type: in vitro ADME; settings: 24 h, pH 5.5 MES buffer, 37°C
# T6 construct: purchased R&D systems 707-C3/CF
# T6 sequence (P42574 29-175 limits assumed): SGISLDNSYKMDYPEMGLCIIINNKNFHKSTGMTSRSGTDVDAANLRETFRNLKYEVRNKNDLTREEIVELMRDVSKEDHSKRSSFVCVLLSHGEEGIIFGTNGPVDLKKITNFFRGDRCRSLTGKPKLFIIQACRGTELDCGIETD
# T6 sequence (P42574 176-277 limits assumed): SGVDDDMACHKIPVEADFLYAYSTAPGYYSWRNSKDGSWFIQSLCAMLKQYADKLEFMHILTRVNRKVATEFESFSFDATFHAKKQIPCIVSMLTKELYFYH
# Procedure: as §1
# [13] = system: LO-2 cells; assay: Cytotoxicity assay (CCK-8), LO-2; type: cell-based, human; settings: 0 to 20 mM, 24 h, compared with mesalamine
# [14] = Biodistribution by NIRF imaging in naive and ALF mice; type: in vivo, C57BL/6 mice; settings: ALF mice, intravenous
# Procedure: The in vivo behavior of SPNs was assessed in healthy mice and APAP-induced ALF models. […] Fluorescence intensity in the images was quantified using LivingImage software. Ex vivo NIRF imaging was conducted with major organs collected from the mice 9 h post-treatment.
# [15] = system: healthy LO-2 cells; assay: Release of DAMPs (HMGB1, HSP70) from healthy hepatocytes; settings: supernatants, western blot
# Procedure: as §2
structure (smiles),measurement,setting,value
"CC(=O)Nc1ccc(O)cc1 [APAP, acetaminophen]",Cat-B level compared to the naive cells,[1],4.22 fold
same,increase in C/EBP homologous protein (CHOP) compared to the naive cells,[1],1.58 fold
"CC(=O)N[C@@H](CS)C(=O)O [NAC, N-acetylcysteine]",effects in preventing body weight loss and histohematological changes,"[2]; NAC 100 mg/kg i.v., compared with SPNs",limited effects
CC(=O)N[C@@H](Cc1ccccc1)C(=O)N[C@@H](CCCNC(=N)N)C(=O)N[C@@H](CCCNC(=N)N)C(=O)NCC(=O)Nc1ccc(O)c(C(=O)O)c1 [SPNs] (Ac-FRRG-X1),cleavage upon incubation with MMP-9,[3],no detectable cleavage
same,toxicity to MIHA cells (cell viability),[4],significantly minimized the toxicity of mesalamine
same,cleavage upon incubation with Cat-B,[5],completely decomposed into mesalamine
same,cleavage upon incubation with Cat-D,[6],no detectable cleavage
same,toxicity to HepG2 cells (cell viability),[7],significantly minimized the toxicity of mesalamine
same,cleavage upon incubation with Cat-L,[8],no detectable cleavage
same,histopathological toxicities in major organs,[9],not observed
same,release of DAMPs (HMGB1 and HSP70),[10],did not increase DAMP release
same,cleavage upon incubation with Cat-E,[11],no detectable cleavage
same,cleavage upon incubation with Cas-3,[12],no detectable cleavage
same,toxicity to LO-2 cells (cell viability),[13],significantly minimized the toxicity of mesalamine
CCN1\C(=C/C=C/C=C/C2=[N+](CCCCCC(=O)O)c3ccc4c(S(=O)(=O)O)cc(S(=O)(=O)O)cc4c3C2(C)C)C(C)(C)c2c1ccc1c(S(=O)(=O)[O-])cc(S(=O)(=O)O)cc21 [free Cy5.5],in vivo clearance (NIRF imaging),[14],rapid in vivo clearance
Nc1ccc(O)c(C(=O)O)c1 [mesalamine],body weight change,"[2]; 24 h of treatment, mesalamine or SPNs 5 mg/kg mesalamine content i.v.",even more severe weight loss relative to the PBS group
same,AST and ALT levels,"[2]; 24 h post-treatment, 5 mg/kg mesalamine content i.v.",higher levels of these parameters compared to the PBS group
same,histopathological toxicities in major organs,[9],substantial structural abnormalities and damaged areas in major organs
same,release of DAMPs (HMGB1 and HSP70),[15],significantly higher levels

# — article PMC11700871 (Theranostics, 2025)
